We go through three molecules from patent US20180327506A1 (AbbVie / Abbott, published 2018).

In assay [1] the target is T1, full-length mature human EMR2 (residues Q24-N823) with N-terminal aspartic acid/lysine epitope tag, … (human, UniProt Q9UHX3 24-823).
T1 construct: Built from NM_013447; The IgK signal peptide is not part of the mature protein; also called hEMR2; hEMR2-NFlag
T1 sequence: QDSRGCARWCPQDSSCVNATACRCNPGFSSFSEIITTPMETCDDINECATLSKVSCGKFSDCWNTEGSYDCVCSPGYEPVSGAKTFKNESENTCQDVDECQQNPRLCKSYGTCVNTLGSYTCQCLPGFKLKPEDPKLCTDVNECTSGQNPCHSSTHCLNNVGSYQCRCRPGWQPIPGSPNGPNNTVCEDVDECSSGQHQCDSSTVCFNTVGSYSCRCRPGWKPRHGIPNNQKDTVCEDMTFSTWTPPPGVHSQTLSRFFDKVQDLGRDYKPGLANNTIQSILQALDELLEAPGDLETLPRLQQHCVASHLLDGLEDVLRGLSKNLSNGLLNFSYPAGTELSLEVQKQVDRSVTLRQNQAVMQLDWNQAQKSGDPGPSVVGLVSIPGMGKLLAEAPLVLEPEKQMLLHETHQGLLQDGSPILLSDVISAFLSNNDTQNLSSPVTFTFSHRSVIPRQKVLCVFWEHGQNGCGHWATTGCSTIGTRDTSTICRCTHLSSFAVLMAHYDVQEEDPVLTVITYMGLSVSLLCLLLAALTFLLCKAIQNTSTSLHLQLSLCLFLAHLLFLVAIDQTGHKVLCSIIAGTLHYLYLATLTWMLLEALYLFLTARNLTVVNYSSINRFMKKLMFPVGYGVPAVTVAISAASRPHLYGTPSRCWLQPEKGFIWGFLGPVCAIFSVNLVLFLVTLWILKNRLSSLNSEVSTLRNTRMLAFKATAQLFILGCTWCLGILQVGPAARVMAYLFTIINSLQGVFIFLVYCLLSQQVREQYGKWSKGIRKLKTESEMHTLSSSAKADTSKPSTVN
Nature of the assay: flow cytometry on transduced HEK293T; 293 naive MFI 269.
Description: (§1) The exemplary antibodies were also tested using flow cytometry to determine their ability to associate with hEMR2, cEMR2 and CD97 expressed on the surface of cells.

The target in assay [2] is T2, full-length mature cynomolgus EMR2 (residues Q24-N816) with N-terminal aspartic acid/lysine epitope tag, … (cynomolgus monkey (Macaca fascicularis), UniProt A0A2K5WL23 21-816).
T2 construct: whole, on cells; also called cEMR2; cEMR2-NFlag
T2 sequence: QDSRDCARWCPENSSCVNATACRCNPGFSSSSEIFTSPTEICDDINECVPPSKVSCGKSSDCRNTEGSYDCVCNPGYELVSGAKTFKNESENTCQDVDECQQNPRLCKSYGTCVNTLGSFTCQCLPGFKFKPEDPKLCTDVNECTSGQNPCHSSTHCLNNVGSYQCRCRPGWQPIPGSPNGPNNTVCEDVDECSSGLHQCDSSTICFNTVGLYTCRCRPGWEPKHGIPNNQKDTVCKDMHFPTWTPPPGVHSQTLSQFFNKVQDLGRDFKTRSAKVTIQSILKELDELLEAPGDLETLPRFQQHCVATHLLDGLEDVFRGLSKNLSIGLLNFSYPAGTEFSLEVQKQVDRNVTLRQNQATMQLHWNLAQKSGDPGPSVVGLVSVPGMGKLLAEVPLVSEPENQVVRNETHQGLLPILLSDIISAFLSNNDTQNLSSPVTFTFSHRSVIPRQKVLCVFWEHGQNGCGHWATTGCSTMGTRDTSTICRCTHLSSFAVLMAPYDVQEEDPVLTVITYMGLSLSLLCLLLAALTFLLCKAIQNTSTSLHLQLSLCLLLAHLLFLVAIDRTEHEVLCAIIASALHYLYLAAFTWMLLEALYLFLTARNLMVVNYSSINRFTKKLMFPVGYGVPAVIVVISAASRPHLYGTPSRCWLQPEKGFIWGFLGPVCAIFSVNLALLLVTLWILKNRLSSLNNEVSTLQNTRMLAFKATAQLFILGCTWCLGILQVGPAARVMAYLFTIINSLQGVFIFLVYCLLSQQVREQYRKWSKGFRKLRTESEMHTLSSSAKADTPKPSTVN
Described as above.
Description: as §1

Assay [3] addresses T3, full-length mature human CD97 (residues Q21-I845) with N-terminal aspartic acid/lysine epitope tag, … (human, UniProt P48960 21-835).
T3 construct: whole, on cells; also called hCD97; hCD97-NFlag
T3 sequence (looked up): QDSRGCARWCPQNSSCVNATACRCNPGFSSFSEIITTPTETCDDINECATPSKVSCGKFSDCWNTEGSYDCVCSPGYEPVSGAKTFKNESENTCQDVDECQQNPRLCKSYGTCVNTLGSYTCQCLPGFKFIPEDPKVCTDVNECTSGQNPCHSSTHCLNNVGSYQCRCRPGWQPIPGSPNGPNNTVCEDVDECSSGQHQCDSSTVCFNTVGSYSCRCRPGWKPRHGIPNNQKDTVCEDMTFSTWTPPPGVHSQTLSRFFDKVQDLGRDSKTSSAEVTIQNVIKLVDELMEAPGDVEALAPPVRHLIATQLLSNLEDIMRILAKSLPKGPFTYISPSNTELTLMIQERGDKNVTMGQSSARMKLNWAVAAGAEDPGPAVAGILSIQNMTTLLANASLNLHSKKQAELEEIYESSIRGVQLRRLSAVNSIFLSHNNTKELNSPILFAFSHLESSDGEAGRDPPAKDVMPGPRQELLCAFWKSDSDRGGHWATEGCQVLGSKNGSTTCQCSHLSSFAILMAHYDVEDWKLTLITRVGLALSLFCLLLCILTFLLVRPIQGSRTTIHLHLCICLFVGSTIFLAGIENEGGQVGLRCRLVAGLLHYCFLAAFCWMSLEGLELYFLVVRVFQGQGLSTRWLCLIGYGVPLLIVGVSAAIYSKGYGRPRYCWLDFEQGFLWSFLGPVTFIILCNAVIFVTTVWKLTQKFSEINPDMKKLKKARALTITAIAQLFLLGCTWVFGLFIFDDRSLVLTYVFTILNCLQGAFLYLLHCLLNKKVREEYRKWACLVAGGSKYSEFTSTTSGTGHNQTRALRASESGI
Described as above.
Description: as §1

Assay [4] concerns the target T1, full-length mature human EMR2 (residues …). Briefly: cell-based or functional assay.
Assay [5] deals with T2, full-length mature cynomolgus EMR2 …. Nature of the assay: cell-based or functional assay.
The target of assay [6] is T3, full-length mature human CD97 (residues …). Briefly: cell-based or functional assay.
For assay [7], the target named is T1, full-length mature human EMR2 (residues …). Nature of the assay: flow cytometry on transduced HEK293T; 293 naive MFI 99.5.
Description: as §1
Assay [8] has as its target T2, full-length mature cynomolgus EMR2 …. The description is as above.
Description: as §1
In assay [9] the target is T3, full-length mature human CD97 (residues …). The assay is described as above.
Description: as §1
The target in assay [10] is T1, full-length mature human EMR2 (residues …). Briefly: flow cytometry on transduced HEK293T; 293 naive MFI 109.
Description: as §1
The target of assay [11] is T2, full-length mature cynomolgus EMR2 …. Described as above.
Description: as §1
Assay [12] has as its target T3, full-length mature human CD97 (residues …). Described as above.
Description: as §1

B1: SC93.255 (antibody, V domains shown)
VH: QVQLQQSDAELVKPGSSVKISCKVSGFTFTDHTIHWMKQRPEQGLEWIGYIYPRDGNTKYNEKFTGKATLTADRSSSTAYMQLNSLTSEDSAVYFCASSNWAQWYFDIWGTGTTVTVSS
VL: DIQMTQSSSYLSVSLGGRVTITCKASDHINNWLAWYQQKPGNAPRLLIFGATSLETGVPSRFSGSGSGKDYTLSITSLQSEDVGTYYCQQYWSIPYTFGGGTKLEIK
notes: Murine hybridoma antibody with a kappa light chain
As to B1, the results for the “FC MFI” value in assay [1], in assay [2] and in assay [3] were 36400, 43800 and 43300, respectively. Besides, the “% live, FAB-saporin killing assay” value amounted to 12.1% in assay [4], 9.63% in assay [5] and 9.09% in [6].

B2: SC93.253 (antibody, V domains shown)
VH: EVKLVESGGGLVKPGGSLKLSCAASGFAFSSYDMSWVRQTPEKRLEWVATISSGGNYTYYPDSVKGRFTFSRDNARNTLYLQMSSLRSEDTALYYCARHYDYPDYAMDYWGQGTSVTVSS
VL: DIVMTQSQKFMSTSVGDRIIITCKASQNVRTTVDWYQQKPGQSPKVLISLASNRHTGVPDRFTGSGSGTDFTLTISNVQSEDLADYFCLQHRNYPLTFGGGTKLEIK
notes: as for B1
As to B2, the “% live, FAB-saporin killing assay” value in assay [4] is 13.4%; in [5], 11.1%; in [6] it was 92.2%. The results for the “FC MFI” value in [7], in [8] and in assay [9] were 38300, 48700 and 328, respectively.

B3: SC93.256 (antibody, IgG2a, V domains shown)
VH: EVKLEESGGGLVQPGGSMKLSCAASGFTFSDAWMDWVRQSPEKGLEWVAEIRSKVNNHETYYAESVKGRFTISRDDSKSSVYLQMNSLRAEDTGIYYCIRNDYFDYWGQGTTLTVSS
VL: DIQMTQTTSSLSASLGDRVTISCSASQGIRNYLNWYQQKPDGTVKLLIYYTSRLHSGVPSRFSGSGSGTDYSLTISNLEPEDIATYYCQQYGKLPYTFGGGTKLEIK
notes: murine, IgG2a
In the case of B3, the “FC MFI” value in assay [10] amounted to 42600; in [11], 37600; in assay [12], 88.3. For the same molecule, the entries for the “% live, FAB-saporin killing assay” value in assay [4], in assay [5] and in assay [6] were 12.5%, 12.3% and 92.4%, respectively.
